Assay results from US20230295345A1 (published 2023).

T1: matriptase (ST14) over-expressed in HEK293T cells (human, UniProt Q9Y5Y6 1-855)
T1 construct: also called matriptase-1
T1 sequence: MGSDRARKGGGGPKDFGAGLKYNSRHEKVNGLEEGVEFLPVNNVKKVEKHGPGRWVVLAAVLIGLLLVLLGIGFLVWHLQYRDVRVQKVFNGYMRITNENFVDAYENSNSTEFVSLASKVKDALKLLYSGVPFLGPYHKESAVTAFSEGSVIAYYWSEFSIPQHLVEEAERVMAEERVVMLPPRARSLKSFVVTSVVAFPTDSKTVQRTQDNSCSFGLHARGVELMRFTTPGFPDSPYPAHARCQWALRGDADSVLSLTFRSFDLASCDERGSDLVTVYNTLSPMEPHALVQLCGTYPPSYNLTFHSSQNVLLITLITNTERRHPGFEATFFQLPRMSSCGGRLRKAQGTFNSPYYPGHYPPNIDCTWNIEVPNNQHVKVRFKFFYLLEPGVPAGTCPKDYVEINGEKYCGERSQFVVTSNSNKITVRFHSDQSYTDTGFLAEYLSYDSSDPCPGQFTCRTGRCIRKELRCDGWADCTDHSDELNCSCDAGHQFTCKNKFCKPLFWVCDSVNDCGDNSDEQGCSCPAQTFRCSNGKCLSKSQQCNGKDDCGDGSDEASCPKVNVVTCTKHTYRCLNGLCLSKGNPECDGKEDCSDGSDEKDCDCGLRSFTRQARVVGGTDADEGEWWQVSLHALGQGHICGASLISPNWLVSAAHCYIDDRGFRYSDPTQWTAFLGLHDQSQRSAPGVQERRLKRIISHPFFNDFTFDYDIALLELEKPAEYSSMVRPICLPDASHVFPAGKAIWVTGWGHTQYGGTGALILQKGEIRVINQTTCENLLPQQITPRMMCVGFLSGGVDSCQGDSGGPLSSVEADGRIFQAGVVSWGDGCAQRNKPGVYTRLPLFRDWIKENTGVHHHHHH

T2: mouse TMPRSS6 expressed on HEK293T cells (MoTMPRSS6-(His)6) (mouse, UniProt Q9DBI0 1-811)
T2 construct: stably expressed in HEK293T cells; also called murine TMPRSS6
T2 sequence: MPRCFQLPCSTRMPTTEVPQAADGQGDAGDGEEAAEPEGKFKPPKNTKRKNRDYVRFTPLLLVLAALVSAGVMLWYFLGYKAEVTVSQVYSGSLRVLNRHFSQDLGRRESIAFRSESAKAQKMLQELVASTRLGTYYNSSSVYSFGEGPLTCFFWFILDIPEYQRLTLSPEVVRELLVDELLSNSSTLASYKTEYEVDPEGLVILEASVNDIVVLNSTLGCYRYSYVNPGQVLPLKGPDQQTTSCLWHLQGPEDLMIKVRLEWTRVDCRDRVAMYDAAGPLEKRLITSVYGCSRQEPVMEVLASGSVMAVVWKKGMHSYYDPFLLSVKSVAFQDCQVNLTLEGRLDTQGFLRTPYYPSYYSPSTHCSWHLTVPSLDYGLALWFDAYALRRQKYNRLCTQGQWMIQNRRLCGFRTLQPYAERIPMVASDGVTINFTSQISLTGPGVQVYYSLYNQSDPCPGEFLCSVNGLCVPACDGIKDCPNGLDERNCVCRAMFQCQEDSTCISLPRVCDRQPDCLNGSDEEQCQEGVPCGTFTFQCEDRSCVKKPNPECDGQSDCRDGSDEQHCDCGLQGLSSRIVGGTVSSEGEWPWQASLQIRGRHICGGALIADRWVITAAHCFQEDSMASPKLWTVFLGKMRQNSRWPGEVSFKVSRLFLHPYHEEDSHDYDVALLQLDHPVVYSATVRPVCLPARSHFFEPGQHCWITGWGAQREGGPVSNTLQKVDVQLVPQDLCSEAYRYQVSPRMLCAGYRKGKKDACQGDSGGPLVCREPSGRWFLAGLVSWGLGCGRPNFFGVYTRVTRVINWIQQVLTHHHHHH

B1: MWTx-001 anti-TMPRSS6 antibody (antibody, mouse IgG2a, kappa, V domains shown)
VH: QVQLQQPGAELAKPGASVKMSCKASGYTFTSYWITWVKQRPGQDLEWIGNIYPGSGSTYYNEKFKSKATLTVDTSSRTAYMQLSSLTSADSAVYYCAPYDSDYAMDYWGQGTSVTVSS
VL: DIKMTQSPSSMYASLGERVTITCKASQDINNYLSWFQQKPGKSPKTLIYRANRLVDGVPSRVSGSGSGQDYSLTISSLEYEDVGIYFCLQYDEFPLTFGAGTKLELKR
notes: Mouse monoclonal antibody from a hybridoma (ATCC PTA-126759)
B2: MWTx-002 anti-TMPRSS6 antibody (antibody, mouse IgG2b, kappa, V domains shown)
VH: EVQLQQSGAELVKPGASVKLSCTASGFNIKDYYIHWVKERTEQGLEWFGRIDPEDGESEYAPKFQGKATLTADTSSNTAYLQLSSLTSEDTAVYYCTRGDSMMVTYFDYWGQGTTLTVSS
VL: DIVMTQSHKFMSTSVGDRVSITCKASQDVSTAVAWYQQKPGQSPKLLIYWAFTRHTGVPDRFTSTGSGTDYALTISSVQAEDLALYYCQQHYRSPWTFGGGTKLEIKR
notes: Mouse monoclonal antibody from a hybridoma (ATCC PTA-126760)
B3: MWTx-003 anti-TMPRSS6 antibody (antibody, mouse IgG2b, kappa, V domains shown)
VH: EVQLQQSGAELVKPGASVKLSCTASGFNIEDYYIHWVKERTEQGLEWIGRIDPEDGETTYAPQFQGKATIIPDTSSNTAYMQLSSLTSEDAAVYYCARSIYLDPMDYWGQGTSVTVSS
VL: DIVMTQSHKFMSTSVGDRVSITCKASQDVTTAVAWYQQKPGQSPKILIYWATTRHTGVPDRFTGSISGTTYILTISSVQAEDLALYYCQQHYSTPYTFGGGTKLEIKR
notes: Mouse monoclonal antibody from a hybridoma (ATCC PTA-126761); also called r4K12B (recombinantly expressed version, same HC and LC)
B4: hzMWTx-002Var anti-TMPRSS6 antibody (antibody, human IgG1, kappa, N297A, V domains shown)
VH: EVQLVQSGAEVKKPGASVKVSCKASGFNIKDYYIHWVRQATGQGLEWMGRIDPEDAESEYAPKFQGRVTITADTSTDTAYMELSSLRSEDTAVYYCTRGDSMMVTYFDYWGQGTLVTVSS
VL: DIQMTQSPSSLSASVGDRVTITCKASQDVSTAVAWYQQKPGKAPKLLIYWAFTRHTGVPSRFSGSGSGTDYALTISSLQPEDFATYYCQQHYRSPWTFGGGTKVEIKR
notes: Humanized variant of MWTx-002, human IgG1/kappa
B5: hzMWTx-001Var anti-TMPRSS6 antibody (antibody, human IgG1, kappa, N297A, V domains shown)
VH: EVQLVQSGAEVKKPGASVKVSCKASGYTFTSYWITWVRQAPGQRLEWIGNIYPGSGSTYYNEKFKSKATITRDTSSRTAYMELSSLRSEDTAVYYCAPYDADYAMDYWGQGTLVTVSS
VL: DIQMTQSPSSLSASVGDRVTITCKASQDISNYLSWFQQKPGKAPKLLIYRANRLVEGVPSRFSGSGSGTDFTLTISSLQPEDFATYFCLQYDEFPLTFGGGTKVEIKR
notes: Humanized variant of MWTx-001, human IgG1/kappa
B6: hzMWTx-003Var anti-TMPRSS6 antibody (antibody, human IgG1, kappa, L234A L235A, V domains shown)
VH: QVQLVQSGAEVKKPGASVKVSCKASGFNIEDYYMHWVRQAPGQRLEWMGRIDPEDAETTYSPKFQGRVTIIPDTSANTAYMELSSLRSEDTAVYYCARSIYLDPMDYWGQGTLVTVSS
VL: DIQMTQSPKSLSASVGDRVTITCRASQDVTTALAWYQQKPGQSPKLLIYWATTRHSGVPSRFSGSGSGTDFTLTISSLQPEDFATYYCQQHYSTPYTFGQGTKLEIKR
notes: Humanized variant of MWTx-003, human IgG1/kappa

molecular target: T1, matriptase (ST14) over-expressed in …; experiment: FACS on permeabilized HEK293T cells over-expressing ST14
From the text: To determine if anti-TMPRSS6 antibodies bind to homologous matriptases, HEK293T cells over-expressing matriptase (ST14) (SEQ ID NO: 100) (FIGS. 5B, 5E, 5H, 5K, 5N, 5Q), and HEK293T cells over-expressing matriptase-3 (TMPRSS7) (SEQ ID NO: 101) (FIGS. 5C, 5F, 5I, 5L, 5O, 5R) were collected (generated in house). HEK293T cells stably expressing human TMPRSS6 (matriptase-2) (SEQ ID NO:97) (generated by LakePharma Inc as described above, FIGS. 5A, 5D, 5G, 5J, 5M, 5P) were used as a positive control and HEK293T cells (FIGS. 5A-5R) were used as a negative control (as described above). Cells were blocked and permeabilized with dPBS + 3% BSA + 0.1% Tween-20 before incubation with various anti-TMPRSS6 antibodies diluted in dPBS + 3% BSA + 0.1% Tween-20. Cells were incubated with anti-TMPRSS6 antibodies and their humanized variants at a concentration of roughly 1 µg/ml for 1 hr. After incubation, cells were washed with dPBS and incubated with goat anti-mouse IgG conjugated with AlexaFluor-488 (Invitrogen, FIGS. 5A-5I) or goat anti-human IgG conjugated with Allophycocyanin (APC) (Jackson Immuno Research, FIGS. 5J-5R) as a 2° antibody. At last, cells were washed with dPBS and re-suspended with dPBS + 1 mM EDTA, and then subjected to FACS analysis using a NOVOCYTE® Flow Cytometer. Bound antibody was determined by excitation at 488 nm and measurement of emission (FITC-A) at 530 nm (FIGS. 5A-5I) or by excitation at 640 nm and measurement of emission (APC-A) at 675 nm (FIGS. 5J-5R). Results for these assays are shown in histogram plots in FIGS. 5A-5R.

binding result | Binder
no binding (tested: roughly 1 µg/ml) | B1
no binding (tested: roughly 1 µg/ml) | B2
no binding (tested: roughly 1 µg/ml) | B3
no binding (tested: roughly 1 µg/ml) | B4
no binding (tested: roughly 1 µg/ml) | B5
no binding (tested: roughly 1 µg/ml) | B6

molecular target: T2, mouse TMPRSS6 expressed on HEK293T …; experiment: cell surface ELISA on fixed HEK293T cells expressing mouse TMPRSS6
Procedure: HEK293T cells stably expressing mouse TMPRSS6 (generated by LakePharma Inc as described above, FIGS. 4J, 4L, 4N, 4P, 4R, 4T) or cynomolgus monkey (generated in house as described above, FIGS. 4K, 4M, 4O, 4Q, 4S, 4U) were fixed with methanol (100%), and washed with dPBS (Dulbecco’s phosphate-buffered saline, Corning Cellgro) before incubation with various concentrations of anti-TMPRSS6 antibodies and their humanized variants diluted in BSA medium (DMEM + 1% Pen/Strep + 10 mM HEPES + 1 mg/ml BSA (Sigma-Aldrich)). Purified mouse IgG (FIGS. 4J-4O) or Human IgG1 (FIGS. 4P-4U) was used as a control. After incubation, cells were washed with BSA medium and then incubated with goat anti-mouse (Invitrogen, FIGS. 4J-4O) or anti-human (Millipore, FIGS. 4P-4U) IgG conjugated with HRP as a 2° antibody. Finally, cells were washed with dPBS to remove unbound antibody and color developed with ELISA liquid substrate (Sigma-Aldrich), followed by stopping the reaction with addition of the same volume of ELISA liquid substrate of 1 M H₂SO₄. Bound antibody was measured by absorbance at OD₄₅₀ₙₘ.

binding result | Binder
binds | B1
binds | B3
no binding | B4
binds | B5
binds | B6
